Test results published in the supplement of paper PMC9112550, “Optimization of the antimicrobial peptide Bac7 by deep mutational scanning” (BMC Biology, 2022).

Tested on: Escherichia coli TOP10
Assay: shrunken log2 fold change of peptide-encoding DNA abundance (4.5 h post-induction vs induction); higher = less antimicrobial activity (less host growth inhibition)
Conditions: time post-induction: 4.5 h; library: site-saturation at positions 5, 18, 19, 20
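Also: peptides expressed intracellularly from a pBAD plasmid library in pooled LB shake-flask culture, induced with 0.3% L-arabinose, DNA abundance read by NGS, three biological replicates, DESeq2 with apeglm shrinkage.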

RRIRERPPRLPRPRPRPFRWPRP and RRIRSRPPRLPRPRPRPKDVPRP are within 0.2 log units of each other in “shrunken log2 fold change” value: 0.0329 for the first, -0.162 for the second.

RRIRNRPPRLPRPRPRPTYEPRP and RRIRCRPPRLPRPRPRPYVCPRP are within 0.2 log units of each other in “shrunken log2 fold change” value: -0.172 for the first, -0.11 for the second.

RRIRHRPPRLPRPRPRPGQKPRP and RRIRERPPRLPRPRPRPVPMPRP are within 0.2 log units of each other in “shrunken log2 fold change” value: 0.00748 for the first, -0.041 for the second.

Going from RRIRHRPPRLPRPRPRPESGPRP to RRIRLRPPRLPRPRPRPITLPRP, the “shrunken log2 fold change” value falls from -0.0115 to -0.553.

RRIRQRPPRLPRPRPRPGQGPRP and RRIRFRPPRLPRPRPRPPKVPRP are within 0.2 log units of each other in “shrunken log2 fold change” value: -0.000829 for the first, 0.0991 for the second.

RRIRNRPPRLPRPRPRPEGPPRP and RRIRTRPPRLPRPRPRPAWTPRP are within 0.2 log units of each other in “shrunken log2 fold change” value: 0.026 for the first, 0.101 for the second.

Going from RRIRFRPPRLPRPRPRPWHAPRP to RRIRERPPRLPRPRPRPKVNPRP, the “shrunken log2 fold change” value falls from -0.162 to -0.389.

RRIRIRPPRLPRPRPRPMKCPRP and RRIRSRPPRLPRPRPRPDHEPRP are within 0.2 log units of each other in “shrunken log2 fold change” value: -0.0692 for the first, -0.0462 for the second.

Compared with RRIRKRPPRLPRPRPRPEAQPRP, RRIRSRPPRLPRPRPRPGKYPRP is lower in “shrunken log2 fold change” value: 0.29 for the first, -0.759 for the second.

RRIRERPPRLPRPRPRPVIFPRP and RRIRNRPPRLPRPRPRPSSYPRP are within 0.2 log units of each other in “shrunken log2 fold change” value: -0.392 for the first, -0.388 for the second.

First: RRIRERPPRLPRPRPRPGVWPRP
Second: RRIRPRPPRLPRPRPRPWFIPRP
The “shrunken log2 fold change” value of the first is higher: 0.44 for the first, -0.298 for the second.

RRIRIRPPRLPRPRPRPLPEPRP and RRIRQRPPRLPRPRPRPGHYPRP are within 0.2 log units of each other in “shrunken log2 fold change” value: 0.0361 for the first, -0.00181 for the second.

RRIRVRPPRLPRPRPRPDNPPRP and RRIRIRPPRLPRPRPRPFMMPRP are within 0.2 log units of each other in “shrunken log2 fold change” value: -0.101 for the first, 0.0298 for the second.

Compared with RRIRERPPRLPRPRPRPFYNPRP, RRIRERPPRLPRPRPRPGYSPRP is higher in “shrunken log2 fold change” value: -0.306 for the first, -0.00468 for the second.

RRIRSRPPRLPRPRPRPFWKPRP and RRIRCRPPRLPRPRPRPHQEPRP are within 0.2 log units of each other in “shrunken log2 fold change” value: -0.125 for the first, -0.0176 for the second.

First: RRIRHRPPRLPRPRPRPNQKPRP
Second: RRIRRRPPRLPRPRPRPGTMPRP
The “shrunken log2 fold change” value of the first is lower: -0.0319 for the first, 0.186 for the second.

RRIRNRPPRLPRPRPRPNQTPRP and RRIRYRPPRLPRPRPRPPQGPRP are within 0.2 log units of each other in “shrunken log2 fold change” value: -0.0303 for the first, -0.0838 for the second.

Going from RRIRDRPPRLPRPRPRPIYGPRP to RRIRMRPPRLPRPRPRPRFWPRP, the “shrunken log2 fold change” value rises from -0.0774 to 0.522.

Going from RRIRTRPPRLPRPRPRPYADPRP to RRIRHRPPRLPRPRPRPQANPRP, the “shrunken log2 fold change” value rises from -0.22 to 0.0174.

Going from RRIRQRPPRLPRPRPRPDFKPRP to RRIRARPPRLPRPRPRPYGFPRP, the “shrunken log2 fold change” value rises from -0.229 to 0.00293.

RRIRLRPPRLPRPRPRPIHAPRP and RRIRIRPPRLPRPRPRPCTNPRP are within 0.2 log units of each other in “shrunken log2 fold change” value: 0.111 for the first, -0.0668 for the second.

Going from RRIRRRPPRLPRPRPRPRAPPRP to RRIRERPPRLPRPRPRPLFSPRP, the “shrunken log2 fold change” value falls from 1.02 to -0.364.

Compared with RRIRWRPPRLPRPRPRPNHHPRP, RRIRGRPPRLPRPRPRPMDNPRP is higher in “shrunken log2 fold change” value: -0.457 for the first, 0.12 for the second.

Compared with RRIRERPPRLPRPRPRPVVGPRP, RRIRPRPPRLPRPRPRPGREPRP is higher in “shrunken log2 fold change” value: -0.106 for the first, 2.45 for the second.

RRIRRRPPRLPRPRPRPCCLPRP and RRIRERPPRLPRPRPRPYYPPRP are within 0.2 log units of each other in “shrunken log2 fold change” value: 0.0396 for the first, -0.14 for the second.

Compared with RRIRERPPRLPRPRPRPNNAPRP, RRIRLRPPRLPRPRPRPVFEPRP is higher in “shrunken log2 fold change” value: -0.162 for the first, 0.239 for the second.

RRIRSRPPRLPRPRPRPKTYPRP and RRIRQRPPRLPRPRPRPTVTPRP are within 0.2 log units of each other in “shrunken log2 fold change” value: -0.543 for the first, -0.47 for the second.

Going from RRIRNRPPRLPRPRPRPPYHPRP to RRIRLRPPRLPRPRPRPRELPRP, the “shrunken log2 fold change” value rises from -0.362 to 0.765.

RRIRQRPPRLPRPRPRPRFFPRP and RRIRSRPPRLPRPRPRPLESPRP are within 0.2 log units of each other in “shrunken log2 fold change” value: 0.0926 for the first, 0.14 for the second.

First: RRIRKRPPRLPRPRPRPVFFPRP
Second: RRIRYRPPRLPRPRPRPCSTPRP
The “shrunken log2 fold change” value of the first is higher: 0.341 for the first, -0.212 for the second.

Going from RRIRMRPPRLPRPRPRPKQCPRP to RRIRFRPPRLPRPRPRPWWAPRP, the “shrunken log2 fold change” value falls from 0.208 to -0.377.

RRIRHRPPRLPRPRPRPRVEPRP and RRIRKRPPRLPRPRPRPTCYPRP are within 0.2 log units of each other in “shrunken log2 fold change” value: 0.0973 for the first, 0.0572 for the second.

Compared with RRIRLRPPRLPRPRPRPKSIPRP, RRIRWRPPRLPRPRPRPAQVPRP is higher in “shrunken log2 fold change” value: -0.189 for the first, 0.565 for the second.

RRIRARPPRLPRPRPRPSDEPRP and RRIRERPPRLPRPRPRPINHPRP are within 0.2 log units of each other in “shrunken log2 fold change” value: 0.324 for the first, 0.198 for the second.

RRIRCRPPRLPRPRPRPKHVPRP and RRIRLRPPRLPRPRPRPEPFPRP are within 0.2 log units of each other in “shrunken log2 fold change” value: -0.155 for the first, -0.0343 for the second.

Going from RRIRNRPPRLPRPRPRPKIGPRP to RRIRQRPPRLPRPRPRPHKRPRP, the “shrunken log2 fold change” value falls from -0.0153 to -0.218.

RRIRDRPPRLPRPRPRPCLYPRP and RRIRMRPPRLPRPRPRPNNEPRP are within 0.2 log units of each other in “shrunken log2 fold change” value: 0.0504 for the first, -0.0748 for the second.

Going from RRIRWRPPRLPRPRPRPDLCPRP to RRIRTRPPRLPRPRPRPVMCPRP, the “shrunken log2 fold change” value falls from 0.777 to -0.222.

RRIRNRPPRLPRPRPRPSPAPRP and RRIRFRPPRLPRPRPRPFEAPRP are within 0.2 log units of each other in “shrunken log2 fold change” value: 0.0876 for the first, -0.105 for the second.

Compared with RRIRPRPPRLPRPRPRPNKGPRP, RRIRMRPPRLPRPRPRPAKMPRP is higher in “shrunken log2 fold change” value: -0.266 for the first, 0.134 for the second.

RRIRSRPPRLPRPRPRPYQWPRP and RRIRWRPPRLPRPRPRPWCNPRP are within 0.2 log units of each other in “shrunken log2 fold change” value: 0.0794 for the first, -0.0973 for the second.

Going from RRIRQRPPRLPRPRPRPLGLPRP to RRIRWRPPRLPRPRPRPWRHPRP, the “shrunken log2 fold change” value falls from 0.103 to -0.141.

RRIRSRPPRLPRPRPRPCITPRP and RRIRFRPPRLPRPRPRPKFQPRP are within 0.2 log units of each other in “shrunken log2 fold change” value: -0.185 for the first, -0.14 for the second.

Going from RRIRKRPPRLPRPRPRPIPAPRP to RRIRWRPPRLPRPRPRPQRVPRP, the “shrunken log2 fold change” value rises from 0.945 to 2.3.

RRIRKRPPRLPRPRPRPMANPRP and RRIRQRPPRLPRPRPRPIPAPRP are within 0.2 log units of each other in “shrunken log2 fold change” value: 0.0288 for the first, 0.214 for the second.

Going from RRIRQRPPRLPRPRPRPKDKPRP to RRIRTRPPRLPRPRPRPSSQPRP, the “shrunken log2 fold change” value rises from -0.386 to -0.153.

First: RRIRHRPPRLPRPRPRPSRPPRP
Second: RRIRERPPRLPRPRPRPNDEPRP
The “shrunken log2 fold change” value of the first is higher: 0.323 for the first, -0.0119 for the second.

RRIRCRPPRLPRPRPRPYQGPRP and RRIRGRPPRLPRPRPRPVWMPRP are within 0.2 log units of each other in “shrunken log2 fold change” value: 0.0299 for the first, -0.117 for the second.

First: RRIRLRPPRLPRPRPRPASDPRP
Second: RRIRRRPPRLPRPRPRPYIGPRP
The “shrunken log2 fold change” value of the first is higher: -0.19 for the first, -0.399 for the second.

First: RRIRNRPPRLPRPRPRPDRQPRP
Second: RRIRLRPPRLPRPRPRPTGLPRP
The “shrunken log2 fold change” value of the first is lower: -0.0285 for the first, 0.177 for the second.

RRIRHRPPRLPRPRPRPTSSPRP and RRIRNRPPRLPRPRPRPMSNPRP are within 0.2 log units of each other in “shrunken log2 fold change” value: -0.0142 for the first, 0.0527 for the second.

First: RRIRTRPPRLPRPRPRPIWGPRP
Second: RRIRKRPPRLPRPRPRPRNGPRP
The “shrunken log2 fold change” value of the first is lower: -0.144 for the first, 0.157 for the second.

Going from RRIRKRPPRLPRPRPRPKWYPRP to RRIRVRPPRLPRPRPRPCKHPRP, the “shrunken log2 fold change” value falls from -0.235 to -0.483.

Compared with RRIRDRPPRLPRPRPRPHSHPRP, RRIRCRPPRLPRPRPRPAADPRP is higher in “shrunken log2 fold change” value: -0.19 for the first, 0.341 for the second.

Compared with RRIRQRPPRLPRPRPRPNKCPRP, RRIRHRPPRLPRPRPRPTNNPRP is lower in “shrunken log2 fold change” value: -0.145 for the first, -0.467 for the second.

RRIRERPPRLPRPRPRPHNSPRP and RRIRVRPPRLPRPRPRPELQPRP are within 0.2 log units of each other in “shrunken log2 fold change” value: -0.156 for the first, -0.0355 for the second.

RRIRWRPPRLPRPRPRPMIWPRP and RRIRDRPPRLPRPRPRPSICPRP are within 0.2 log units of each other in “shrunken log2 fold change” value: 0.0116 for the first, -0.0317 for the second.

First: RRIRSRPPRLPRPRPRPKPEPRP
Second: RRIRKRPPRLPRPRPRPWQQPRP
The “shrunken log2 fold change” value of the first is lower: -0.01 for the first, 0.608 for the second.

Going from RRIRLRPPRLPRPRPRPDLMPRP to RRIRDRPPRLPRPRPRPNHKPRP, the “shrunken log2 fold change” value falls from -0.145 to -0.661.

RRIRLRPPRLPRPRPRPDEPPRP and RRIRWRPPRLPRPRPRPMLPPRP are within 0.2 log units of each other in “shrunken log2 fold change” value: -0.0538 for the first, -0.0127 for the second.

RRIRLRPPRLPRPRPRPNFAPRP and RRIRNRPPRLPRPRPRPKLRPRP are within 0.2 log units of each other in “shrunken log2 fold change” value: 0.0393 for the first, 0.00281 for the second.

Compared with RRIRQRPPRLPRPRPRPSIVPRP, RRIRRRPPRLPRPRPRPDEMPRP is higher in “shrunken log2 fold change” value: -0.323 for the first, 0.753 for the second.

For RRIRIRPPRLPRPRPRPMFPPRP, the “shrunken log2 fold change” value was -0.724.
